Experimental data from the supplement of paper PMC10567573.

B1: ACBD3 (parent)
chain: YVASHKIEKEEQEKKRKEEEERRR

Variants of: B1
Test: protein stability index of a GFP-peptide fusion (GPS, HEK-293T) (PSI 1-6); higher = more stable
Settings: c terminus: a fixed tail appended
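Note: lentivirally expressed fusions sorted by FACS into six bins by GFP to DsRed ratio, PSI derived from sequencing read proportions per bin multiplied by bin number.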

Protein stability index, by site and new letter:
S4: R 2.57, T 2.74, V 3.28, W 1.49, Y 2.49
H5: Q 2.7, S 3.07, D 4.25, Y 2.42, W 2, G 1.92, V 3.05, A 3.1, M 2.5, P 3.08, E 4.24, N 2.4, F 2.24, T 3, K 2.61, R 2.46, I 3.02, L 2.82
E18: C 2.12, R 2.26, D 2.38, L 2.16, K 2.05, T 2.41, Y 1.94, H 1.6, W 3.53, M 2.46, V 1.95, P 2.25, A 3.07, I 2.42, N 1.85, S 2.22, Q 2.43
I7: D 3.86, Y 2.36, W 1.81, K 2.89, C 3.86, R 2.67, M 2.56, S 3.22, A 3.29, E 2.89, Q 2.25, H 3.1, G 3.13, V 2.43, P 3.35, T 3.09, L 2.37, F 2.53
K17: Q 2.07, V 2.9, M 2.45, L 3.14, F 2.32, E 2.93, N 2.99, H 2.74, P 3.01, D 2.77, C 2.41, G 3.79, A 2.88, R 3.32, T 2.35, Y 2.06, S 3.09, W 1.84, I 2.35
E19: Q 2.61, Y 2.38, W 2.19, M 1.98, I 3.02, G 2.03, V 2.59, P 1.81, D 2.74, T 2.57, R 2.25, K 2.48, N 1.94, L 2.39, F 2.68, C 2.53, H 2.44, A 2.6, S 2.54
K6: E 3.67, F 2.79, L 2.66, Y 2.12, I 2.66, V 2.95, C 2.98, M 3.21, Q 3.76, P 2.67, H 3.21, S 2.77, T 2.88, G 2.96, D 4.14, N 2.7, R 2.74
K15: R 2.69, G 2.71, H 3.06, I 2.39, Q 3.15, A 3.27, L 2.2, Y 2.16, P 2.4, W 3.36, D 2.73, F 2.06, N 2.62, C 2.09, M 2.6, E 3.07, V 2.74, S 2.79
Q12: L 2.78, K 2.12, N 2.18, D 3.76, R 2.26, P 2.31, E 3.63, H 2.27, F 1.96, V 2.02, W 1.93, A 3.33, C 2.92, Y 2.67, G 2.88, I 3.33, S 1.82, T 2.52
E10: K 2.46, Y 2.08, L 2.95, F 1.76, I 2.1, S 3.11, A 1.55, R 1.87, V 2.46, T 2.08, D 2.42, Q 1.88, H 1.66, C 2.19, N 2.79, M 2.42, G 1.9, P 1.78
E11: P 1.76, R 1.93, H 3.12, A 3.79, Q 2.79, D 2.75, K 1.71, Y 2.37, C 2.55, V 1.98, W 2.67, S 2.57, G 2.34, F 3.47, T 4.28, L 2.13, M 2.2, I 2.24
R22: V 2.89, K 2.69, L 1.89, H 2.42, F 2.5, D 3.24, M 2.76, Q 3.11, W 2.28, Y 2.87, I 3.59, A 2.45, G 2.68, T 3.28, E 3.02, N 3.14, C 2.69, P 2.72, S 2.99
E20: I 2.58, P 1.98, K 2.83, H 2.39, R 1.91, Q 2.36, M 2.48, C 3.17, A 2.81, G 1.96, L 1.71, N 2.56, T 2.57, S 2.62, D 2.63, F 2.5, V 1.82, Y 1.58
E21: I 2.57, M 2.04, N 2.07, S 2.52, Q 2.37, L 2.28, V 3.05, F 2.45, H 3.13, R 2.04, D 2.25, A 1.54, W 2.67, Y 2.15, C 2.21, K 2.35, G 2.03, T 2.38, P 2.35
R23: A 2.85, F 2.82, E 3.35, G 3.03, D 3.16, C 2.44
E13: Q 2, V 2.93, K 1.73, W 2.81, M 2.04, T 2.33, G 2.15, Y 2.41, P 2.02, F 2.39, D 2.9, L 2.27, N 2.52, C 2.66, I 2.22, S 3.36, H 2.25
K14: M 2.62, G 2.79, D 3.27, P 2.49, W 2.69, I 3.21, V 3.09, S 2.74, Y 2.27, H 2.22, N 2.99, Q 2.95, L 3, T 2.44, C 2.67
R16: G 2.88, L 3, F 2.34, D 2.76, M 3.23, K 2.92, T 3.41, I 2.69, Y 2.74, V 2.24, Q 2.94, H 2.4, A 3.02, P 2.6, C 2.67, E 3.75, W 2.27, N 2.63, S 2.65
K9: S 2.78, W 1.86, G 2.5, F 2.72, Q 3.22, T 2.42, I 2.29, N 3.19, M 2.8, C 2.5, Y 2.28, D 3.61, V 2, L 3.07, E 3.42, R 1.84, A 3.03
E8: I 2.16, R 2.81, H 1.96, Y 2.32, V 2.1, P 2.29, Q 2.14, S 2.83, G 2.49, T 2.13, K 2.57, F 1.12, M 1.75, A 2.23, D 2.74, C 2.42, L 2.33, W 2.03, N 2.36
